Data on 31 molecules can be found in patent US20080112961A1 (MacroGenics, published 2008).

The chains are these.
T1: FcγRIIB (form not stated) (UniProt P31994 43-217, limits assumed)
T1 construct: also called FcγRIIB (ELISA)
T1 sequence (looked up): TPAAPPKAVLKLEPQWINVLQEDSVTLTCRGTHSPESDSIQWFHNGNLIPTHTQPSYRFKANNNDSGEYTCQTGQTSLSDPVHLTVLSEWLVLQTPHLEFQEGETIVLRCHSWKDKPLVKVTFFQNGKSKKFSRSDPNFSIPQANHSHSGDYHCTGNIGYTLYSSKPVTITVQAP

T2: FcγRIIB-Fc fusion protein, soluble dimer: extracellular domain of FcγRIIB fused to the hinge-CH2-CH3 domain … (human, UniProt P31994 43-217, limits assumed)
T2 construct: extracellular domain; also called FcRIIB-Fc; 2bfcagl; not shown: human IgG2 hinge-CH2-CH3
T2 sequence (looked up): T1 sequence (looked up)

B1: ch4-4-20 K334E, T359N, T366S (antibody)
heavy: ASTKGPSVFPLAPSSKSTSGGTAALGCLVKDYFPEPVTVSWNSGALTSGVHTFPAVLQSSGLYSLSSVVTVPSSSLGTQTYICNVNHKPSNTKVDKKVEPKSCDKTHTCPPCPAPELLGGPSVFLFPPKPKDTLMISRTPEVTCVVVDVSHEDPEVKFNWYVDGVEVHNAKTKPREEQYNSTYRVVSVLTVLHQDWLNGKEYKCKVSNKALPAPIEETISKAKGQPREPQVYTLPPSRDELNKNQVSLSCLVKGFYPSDIAVEWESNGQPENNYKTTPPVLDSDGSFFLYSKLTVDKSRWQQGNVFSCSVMHEALHNHYTQKSLSLSPGK
B2: ch4-4-20 A378V, N390I, V422I (antibody)
heavy: B1 heavy with E217K, N242T, S249T, A261V, N273I, V305I
B3: ch4-4-20 V348M, K334N, F275I, Y202M, K147T (antibody)
chain: B1 heavy with K30T, V85M, F158I, E217N, V231M, N242T, S249T
B4: ch4-4-20 P244H, L358M, V379M, N384K, V397M (antibody)
heavy: B1 heavy with P127H, E217K, L241M, N242T, S249T, V262M, N267K, V280M
B5: ch4-4-20 T335N, K370E, A378V, T394M, S424L (antibody)
heavy: B1 heavy with E217K, T218N, N242T, S249T, K253E, A261V, T277M, S307L
B6: ch4-4-20 V282E, V369I, L406F (antibody)
heavy: B1 heavy with V165E, E217K, N242T, S249T, V252I, L289F
B7: ch4-4-20 V273I, K326E, L328I, P396L (antibody)
heavy: B1 heavy with V156I, K209E, L211I, E217K, N242T, S249T, P279L
B8: ch4-4-20 R301H, K340E, D399E (antibody)
heavy: B1 heavy with R184H, E217K, K223E, N242T, S249T, D282E
B9: ch4-4-20 K290T, N390I, P396L (antibody)
heavy: B1 heavy with K173T, E217K, N242T, S249T, N273I, P279L
B10: ch4-4-20 N315I, V379M, T394M (antibody)
heavy: B1 heavy with N198I, E217K, N242T, S249T, V262M, T277M
B11: ch4-4-20 K334E, T359N, T366S, Q386R (antibody)
heavy: B1 heavy with Q269R
B12: ch4-4-20 P247L, A431V, S442F (antibody)
heavy: B1 heavy with P130L, E217K, N242T, S249T, A314V, S325F
B13: ch4-4-20 K246N, Q419R, P396L (antibody)
heavy: B1 heavy with K129N, E217K, N242T, S249T, P279L, Q302R
B14: ch4-4-20 K222N, T335N, K370E, A378V, T394M (antibody)
heavy: B1 heavy with K105N, E217K, T218N, N242T, S249T, K253E, A261V, T277M
B15: ch4-4-20 D280E, S354F, A431D, L441I (antibody)
heavy: B1 heavy with D163E, E217K, S237F, N242T, S249T, A314D, L324I
B16: ch4-4-20 F275I, K334N, V348M (antibody)
heavy: B1 heavy with F158I, E217N, V231M, N242T, S249T
B17: ch4-4-20 P247L, I253N, K334N (antibody)
heavy: B1 heavy with P130L, I136N, E217N, N242T, S249T
B18: ch4-4-20 P343S, P353L, S375I, S383N (antibody)
heavy: B1 heavy with E217K, P226S, P236L, N242T, S249T, S258I, S266N
B19: ch4-4-20 F243L, V305I, A378D, F404S, P396L (antibody)
heavy: B1 heavy with F126L, V188I, E217K, N242T, S249T, A261D, P279L, F287S
notes: also called MgFc54
B20: ch4-4-20 K326Q, K334E, T359N, T366S (antibody)
heavy: B1 heavy with K209Q
B21: ch4-4-20 P247L, W313R, E388G (antibody)
heavy: B1 heavy with P130L, W196R, E217K, N242T, S249T, E271G
B22: ch4-4-20 D221Y, M252I, A330G, A339T, T359N, V422I, H433L (antibody)
heavy: B1 heavy with D104Y, M135I, A213G, E217K, A222T, S249T, V305I, H316L
B23: ch4-4-20 F275L, Q362H, N384K, P396L (antibody)
heavy: B1 heavy with F158L, E217K, N242T, Q245H, S249T, N267K, P279L
B24: ch4-4-20 T256S, V305I, K334E, N390S (antibody)
heavy: B1 heavy with T139S, V188I, N242T, S249T, N273S
B25: ch4-4-20 V397M, T411A, S415N (antibody)
heavy: B1 heavy with E217K, N242T, S249T, V280M, T294A, S298N
B26: ch4-4-20 K326I, S408N, P396L (antibody)
heavy: B1 heavy with K209I, E217K, N242T, S249T, P279L, S291N
B27: ch4-4-20 K246R, S298N, I377F (antibody)
heavy: B1 heavy with K129R, S181N, E217K, N242T, S249T, I260F
B28: ch4-4-20 K290E, V369A, T393A, P396L (antibody)
heavy: B1 heavy with K173E, E217K, N242T, S249T, V252A, T276A, P279L
B29: ch4-4-20 P247L, A330T, S440G (antibody)
heavy: B1 heavy with P130L, A213T, E217K, N242T, S249T, S323G
B30: ch4-4-20 MgFc63 (S298N, K360R, N361D) (antibody)
heavy: B1 heavy with S181N, E217K, N242T, K243R, N244D, S249T
B31: ch4-4-20 MgFc66 (A330V, V427M) (antibody)
chain 1: not shown
chain 2: DVVMTQTPLSLPVSLGDQASISCRSSQSLVHSNGNTYLRWYLQKPGQSPKVLIYKVSNRFSGVPDRFSGSGSGTDFTLKISRVEAEDLGVYFCSQSTHVPWTFGGGTKLEIKRTVAAPSVFIFPPSDEQLKSGTASVVCLLNNFYPREAKVQWKVDNALQSGNSQESVTEQDSKDSTYSLSSTLTLSKADYEKHKVYACEVTHQGLSSPVTKSFNRGEC

Positions count from the first letter of the chain named. Names may count otherwise.

The target of the first assay is T3, FcγRIIIA (form not stated) (UniProt P08637 17-208, limits assumed).
T3 construct: also called FcγRIIIA (ELISA)
T3 sequence (P08637 17-208 F176V limits assumed, form in doubt): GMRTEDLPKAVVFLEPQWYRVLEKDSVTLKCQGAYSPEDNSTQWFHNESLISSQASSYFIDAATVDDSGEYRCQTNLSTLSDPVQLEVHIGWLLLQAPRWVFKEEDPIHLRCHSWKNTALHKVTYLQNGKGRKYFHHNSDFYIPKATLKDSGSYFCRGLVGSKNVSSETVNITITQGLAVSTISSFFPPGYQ
The assay is described as follows: ELISA. (In general: An ELISA detects its analyte on a solid surface through an enzyme-linked reagent.)
Turning to B1, the “ELISA binding, fold vs Wt” value is 1.5 X.

The next assay addresses T3, FcγRIIIA (form not stated). The experiment in a line: ELISA. This is another data set of the same source.
Regarding B2, the “fold increase vs WT” value came out at 0.5 x. As to B3, the “fold increase vs WT” value came to 0.5 x. With B4, the “fold increase vs WT” value turned out to be 1.75 x. B5: the “fold increase vs WT” value stood at 0.5 x. For the molecule B6, the “fold increase vs WT” value was 0.5 x. Regarding B7, the “fold increase vs WT” value amounted to 1.3 x. For the molecule B8, the “fold decrease vs WT” value was 0.5 x. On to B9, for which the “fold increase vs WT” value worked out at 2.8 x. Turning to B10, the “fold increase vs WT” value turned out to be 1 x. B11: the “fold increase vs WT” value came to 1 x. On the same count and under the same terms, then B1, with 1.5 x. For the molecule B12, the “fold vs WT” value was found to be 1 x. On to B13, for which the “fold increase vs WT” value stood at 1.1 x. For B14, the “fold increase vs WT” value turned out to be 1 x. For B15, the “fold increase vs WT” value came out at 3 x. As to B16, the “fold increase vs WT” value worked out at 0.5 x.

Consider B17, for which the “fold increase vs WT” value was 3 x. In the case of B18, the “fold increase vs WT” value was 0.5 x.

On to B19, for which the “fold increase vs WT” value worked out at 1.6 x.

For B20, the “fold increase vs WT” value was 1.5 x. With B21, the “fold increase vs WT” value came to 1.5 x.

Take B22: the “fold increase vs WT” value stood at 2.5 x.

In the case of B23, the “fold increase vs WT” value was 2.2 x. For B24, the “fold increase vs WT” value was determined as 1.5 x.

For B25, the “fold increase vs WT” value was found to be 0.25 x. For the molecule B26, the “fold increase vs WT” value was 4 x. Still for that read-out and setting: then B27, with 1 x; and B28, with 1.3 x.

Turning to B29, the “fold increase vs WT” value stood at 0.75 x.

The target of another assay is T1, FcγRIIB (form not stated). The assay is described as follows: ELISA.
For the molecule B2, the “fold increase vs WT” value stood at 5 x. On the same count and under the same terms, with B3 the figure was 0.75 x. Same read-out and setting: with B4 the figure was 1.5 x. Regarding B5, the binding result is recorded as “binds”. As for B6, the “fold increase vs WT” value came out at 7 x. With B7, the “fold increase vs WT” value was 10.8 x. As for B8, the “fold decrease vs WT” value came to 0.25 x. On to B9, for which the “fold increase vs WT” value came to 6.1 x.

Take B10: the “fold increase vs WT” value came out at 9 x. For the molecule B11, the binding result is “binds”. In the case of B1, the binding result was “binds”.

For the molecule B12, the binding result was “binds”.

With B13, the “fold increase vs WT” value is 4.8 x.

On to B14, for which the “fold increase vs WT” value came to 7 x. Consider B15, for which the binding result is listed as “binds”. As for B16, the binding result is reported as “binds”. On to B17, for which the “fold increase vs WT” value turned out to be 2.5 x. With B18, the “fold increase vs WT” value was determined as 6 x. Turning to B19, the “fold increase vs WT” value came to 5.4 x. Consider B20, for which the “fold increase vs WT” value stood at 5 x. With B21, the “fold increase vs WT” value came to 1 x. For the molecule B22, the “fold increase vs WT” value was determined as 6 x. Turning to B23, the “fold increase vs WT” value came out at 3.7 x. With B24, the binding result is “binds”. In the case of B25, the “fold increase vs WT” value stood at 5 x.

Take B26: the “fold increase vs WT” value came to 9.3 x. For B27, the “fold increase vs WT” value was 5 x. The same measure, in the same setting: then B28, with 6.7 x. For B29, the “fold decrease vs WT” value came out at 0.25 x.

A further assay concerns the target T2, FcγRIIB-Fc fusion protein, soluble …. The assay is described as follows: BIAcore, ch4-4-20. As to the method: Following this, the unreacted active esters were “capped off” with an injection of 1M Et-NH2. Once a suitable surface was prepared, ch 4-4-20 antibodies carrying the Fc mutations were passed over the surface by one minute injections of a 20 μg/mL solution at a […] flow rate. […] Next, dilution series of the receptor (FcγRIIIA and FcγRIIB-Fc fusion protein) in HBS-P buffer (10 mM HEPES, 150 mM NaCl, 0.005% Surfactant P20, 3 mM EDTA, pH 7.4) were injected onto the surface at 100 μL/min Antibody regeneration between different receptor dilutions was carried out by single 5 second injections of 100 mM NaHCO₃ pH 9.4; 3M NaCl.
Binding curves for two different concentrations (200 nM and 800 nM for FcγRIIIA and 200 nM and 400 nM for FcγRIIB fusion protein) were aligned and responses adjusted to the same level of captured antibodies, and the reference curves were subtracted from the experimental curves. Association and dissociation phases were fitted separately. Dissociation rate constant was obtained for interval 32-34 sec of the dissociation phase; association phase fit was obtained by a 1:1 Langmuir model and base fit was selected on the basis Rₘₐₓ and chi² criteria.
Secondary Screen of Mutants via BIAcore: Mutants that were selected in the above screens were then analyzed by BIAcore to determine the kinetic parameters for binding FcγRIIIA (158V) and FcγRIIB. The method used was similar to that disclosed in Section 7.1, supra.
For B30, the “Koff WT/Mut” value turned out to be 0.67 ratio.

On to B31, for which the “Koff WT/Mut” value is 0.62 ratio.
